# Experimental data taken from paper PMC2958364 (Journal of molecular biology, 2008).
# Legend:
# [1] = target: αvβ6 integrin on A375Pβ6 cells (Homo sapiens (A375P alpha-V, human …, UniProt P06756;P18564)); test: flow cytometry on cells
# [2] = target: αvβ6 integrin, purified from CHO αvβ6 cells (Homo sapiens (assumed), recombinant …, UniProt P06756;P18564); test: ELISA
# [3] = target: αvβ3 integrin, immobilized (Homo sapiens (assumed), UniProt P06756;P05106); test: ELISA
# Chain of αvβ3 integrin, immobilized (P06756 31-1048, chain 1 of 2): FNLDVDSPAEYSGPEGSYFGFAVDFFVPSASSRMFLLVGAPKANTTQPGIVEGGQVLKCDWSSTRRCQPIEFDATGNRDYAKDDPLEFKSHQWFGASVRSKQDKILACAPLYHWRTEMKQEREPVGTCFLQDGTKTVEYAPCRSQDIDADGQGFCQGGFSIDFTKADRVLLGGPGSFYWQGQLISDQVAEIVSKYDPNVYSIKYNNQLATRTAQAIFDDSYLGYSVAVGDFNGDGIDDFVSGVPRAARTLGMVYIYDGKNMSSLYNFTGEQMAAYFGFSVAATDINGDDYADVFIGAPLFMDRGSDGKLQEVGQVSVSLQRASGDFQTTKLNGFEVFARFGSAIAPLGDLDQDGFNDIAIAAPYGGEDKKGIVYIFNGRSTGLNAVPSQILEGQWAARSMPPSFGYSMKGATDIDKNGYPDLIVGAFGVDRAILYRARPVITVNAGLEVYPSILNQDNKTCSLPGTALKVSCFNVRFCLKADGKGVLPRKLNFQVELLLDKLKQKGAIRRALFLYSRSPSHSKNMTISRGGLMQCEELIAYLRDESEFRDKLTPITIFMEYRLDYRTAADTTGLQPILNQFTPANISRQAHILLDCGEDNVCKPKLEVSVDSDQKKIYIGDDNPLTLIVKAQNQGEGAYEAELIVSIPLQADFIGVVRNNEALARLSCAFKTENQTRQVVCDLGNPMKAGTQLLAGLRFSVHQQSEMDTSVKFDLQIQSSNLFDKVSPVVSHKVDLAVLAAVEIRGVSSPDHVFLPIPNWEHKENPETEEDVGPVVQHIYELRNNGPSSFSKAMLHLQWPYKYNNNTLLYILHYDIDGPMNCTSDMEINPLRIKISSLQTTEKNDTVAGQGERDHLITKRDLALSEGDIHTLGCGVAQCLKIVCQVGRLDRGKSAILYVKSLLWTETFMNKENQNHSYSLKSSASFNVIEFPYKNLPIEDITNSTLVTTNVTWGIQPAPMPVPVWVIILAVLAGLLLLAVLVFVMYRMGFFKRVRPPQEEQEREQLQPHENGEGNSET
# Chain of αvβ3 integrin, immobilized (P05106 27-718, chain 2 of 2): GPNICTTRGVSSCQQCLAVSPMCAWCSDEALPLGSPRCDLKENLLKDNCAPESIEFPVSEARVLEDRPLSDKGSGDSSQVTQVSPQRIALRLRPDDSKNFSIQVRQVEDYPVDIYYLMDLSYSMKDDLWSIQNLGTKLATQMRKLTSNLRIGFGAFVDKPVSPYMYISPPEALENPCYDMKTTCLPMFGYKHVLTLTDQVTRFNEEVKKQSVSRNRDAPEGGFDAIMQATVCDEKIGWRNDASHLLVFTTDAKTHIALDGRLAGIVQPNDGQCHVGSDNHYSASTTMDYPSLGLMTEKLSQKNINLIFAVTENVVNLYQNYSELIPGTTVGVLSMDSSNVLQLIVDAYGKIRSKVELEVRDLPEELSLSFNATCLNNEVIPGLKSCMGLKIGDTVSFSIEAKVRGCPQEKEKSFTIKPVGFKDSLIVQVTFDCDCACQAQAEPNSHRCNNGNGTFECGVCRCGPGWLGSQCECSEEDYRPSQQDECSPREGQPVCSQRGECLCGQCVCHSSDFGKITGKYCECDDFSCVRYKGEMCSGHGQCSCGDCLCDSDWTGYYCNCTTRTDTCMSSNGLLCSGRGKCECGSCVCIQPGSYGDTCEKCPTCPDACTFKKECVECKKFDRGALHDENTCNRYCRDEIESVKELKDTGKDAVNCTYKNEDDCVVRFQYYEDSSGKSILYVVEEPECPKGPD
# Chain of αvβ6 integrin, purified from CHO αvβ6 cells (P06756 31-1048, chain 1 of 2): as the sequence (P06756 31-1048, chain 1 of 2) above
# Chain of αvβ6 integrin, purified from CHO αvβ6 cells (P18564 22-788, chain 2 of 2): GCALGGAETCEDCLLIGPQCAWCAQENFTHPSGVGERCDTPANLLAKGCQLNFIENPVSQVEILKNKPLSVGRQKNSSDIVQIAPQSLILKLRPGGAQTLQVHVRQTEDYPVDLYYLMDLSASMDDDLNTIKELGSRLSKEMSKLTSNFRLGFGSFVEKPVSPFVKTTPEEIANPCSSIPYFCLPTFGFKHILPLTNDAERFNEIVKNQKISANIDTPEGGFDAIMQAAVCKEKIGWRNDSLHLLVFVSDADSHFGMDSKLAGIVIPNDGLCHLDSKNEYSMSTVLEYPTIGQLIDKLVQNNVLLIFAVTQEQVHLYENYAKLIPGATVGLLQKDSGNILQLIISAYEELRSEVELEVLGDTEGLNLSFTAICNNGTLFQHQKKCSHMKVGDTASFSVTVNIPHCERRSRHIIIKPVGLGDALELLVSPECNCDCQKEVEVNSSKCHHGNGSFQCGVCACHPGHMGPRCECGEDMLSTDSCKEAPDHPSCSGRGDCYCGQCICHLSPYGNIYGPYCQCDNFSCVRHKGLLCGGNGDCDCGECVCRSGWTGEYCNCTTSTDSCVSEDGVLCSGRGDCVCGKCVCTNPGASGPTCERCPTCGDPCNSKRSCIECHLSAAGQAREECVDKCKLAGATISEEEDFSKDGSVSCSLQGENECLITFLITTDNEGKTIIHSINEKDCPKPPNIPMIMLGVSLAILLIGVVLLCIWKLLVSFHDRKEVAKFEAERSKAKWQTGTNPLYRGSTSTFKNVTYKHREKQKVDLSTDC
# Chain of αvβ6 integrin on A375Pβ6 cells (Homo sapiens (P06756 31-1048, stated change not applied, chain 1 of 2): as the sequence (P06756 31-1048, chain 1 of 2) above
# Chain of αvβ6 integrin on A375Pβ6 cells (Homo sapiens (P18564 22-788, chain 2 of 2): as the sequence (P18564 22-788, chain 2 of 2) above
binder,measurement,setting,value
"MFE-23 (scFv, V domains shown) VH: QVKLQQSGAELVRSGTSVKLSCTASGFNIKDSYMHWLRQGPEQGLEWIGWIDPENGDTEYAPKFQGKATFTTDTSSNTAYLQLSSLTSEDTAVYYCNEGTPTGPYYFDYWGQGTTVTVSS VL: ENVLTQSPAIMSASPGEKVTITCSASSSVSYMHWFQQKPGTSPKLWIYSTSNLASGVPARFSGSGSGTSYSLTISRMEAEDAATYYCQQRSSYPLTFGAGTKLELK",binding result,[1],no binding (tested: 50 μg/ml)
same,binding result,[2],no binding (tested: 5 μg/ml)
same,binding result,[3],no binding (tested: 5 μg/ml)
